Legend:
[1] = target: T1, Cyno B7-H4-Fc (Cyno B7H4 ECD, FcTM_6His) (cynomolgus monkey); assay: HTRF binding, murine IgG1
T1 construct: extracellular domain; also called cynomolgus B7-H4-Fc

huBTN1A1 [2] = target: T2, huBTN1A1 (human, UniProt Q13410 27-242, limits assumed); assay: ELISA, absorbance 450 nm, antigen human BTN1A1 GST
T2 construct: Sourced antigen; construct not described; also called Human BTN1A1
T2 sequence (looked up): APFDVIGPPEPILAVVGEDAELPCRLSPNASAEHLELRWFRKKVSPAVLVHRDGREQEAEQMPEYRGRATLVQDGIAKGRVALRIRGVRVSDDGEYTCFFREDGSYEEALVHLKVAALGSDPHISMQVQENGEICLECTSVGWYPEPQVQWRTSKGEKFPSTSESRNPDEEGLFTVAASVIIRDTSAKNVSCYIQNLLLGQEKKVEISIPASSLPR

huB7-H1 [3] = target: T3, huB7-H1 (human, UniProt Q9NZQ7 19-238); assay: ELISA, absorbance 450 nm, antigen human B7-H1(ECD) F10H
T3 construct: Sourced antigen; construct not described; also called Human B7-H1

huBTNL3 = target: T4, huBTNL3 (human, UniProt Q6UXE8 18-237, limits assumed); assay: ELISA
T4 construct: Sourced antigen; construct not described; also called Human BTNL3
T4 sequence (looked up): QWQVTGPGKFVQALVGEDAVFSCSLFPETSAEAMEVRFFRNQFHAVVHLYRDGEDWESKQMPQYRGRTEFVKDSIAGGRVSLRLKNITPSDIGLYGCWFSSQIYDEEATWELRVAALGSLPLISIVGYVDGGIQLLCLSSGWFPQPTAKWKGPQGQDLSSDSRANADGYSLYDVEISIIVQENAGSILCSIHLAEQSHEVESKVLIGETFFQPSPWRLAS

huBTN2A1 = target: T5, huBTN2A1 (human, UniProt Q7KYR7 29-248, limits assumed); assay: ELISA
T5 construct: Sourced antigen; construct not described; also called Human BTN2A1
T5 sequence (looked up): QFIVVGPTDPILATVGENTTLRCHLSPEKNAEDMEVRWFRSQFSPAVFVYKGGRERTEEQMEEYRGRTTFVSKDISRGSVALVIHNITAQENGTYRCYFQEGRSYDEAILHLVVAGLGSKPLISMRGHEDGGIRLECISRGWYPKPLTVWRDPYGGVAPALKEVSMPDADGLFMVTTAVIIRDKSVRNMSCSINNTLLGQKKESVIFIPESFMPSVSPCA

huB7-H2 [4] = target: T6, huB7-H2 (human, UniProt O75144 19-258); assay: ELISA, absorbance 450 nm, antigen human B7-H2 (ECD) F10H
T6 construct: Sourced antigen; construct not described; also called Human B7-H2
T6 sequence (looked up): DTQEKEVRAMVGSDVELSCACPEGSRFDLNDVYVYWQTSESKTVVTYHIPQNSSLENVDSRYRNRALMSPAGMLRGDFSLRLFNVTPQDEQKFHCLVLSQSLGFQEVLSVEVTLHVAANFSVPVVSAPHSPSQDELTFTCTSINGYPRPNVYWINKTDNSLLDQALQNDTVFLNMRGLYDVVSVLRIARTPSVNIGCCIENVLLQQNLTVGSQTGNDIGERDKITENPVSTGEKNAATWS

[5] = target: T7, Human B7-H4-Fc (Human B7H4 ECD, Fc_6His) (human); assay: HTRF binding, murine IgG1
T7 construct: also called FcHis6 tagged human B7-H4
T7 sequence (Q7Z7D3 whole entry, looked up): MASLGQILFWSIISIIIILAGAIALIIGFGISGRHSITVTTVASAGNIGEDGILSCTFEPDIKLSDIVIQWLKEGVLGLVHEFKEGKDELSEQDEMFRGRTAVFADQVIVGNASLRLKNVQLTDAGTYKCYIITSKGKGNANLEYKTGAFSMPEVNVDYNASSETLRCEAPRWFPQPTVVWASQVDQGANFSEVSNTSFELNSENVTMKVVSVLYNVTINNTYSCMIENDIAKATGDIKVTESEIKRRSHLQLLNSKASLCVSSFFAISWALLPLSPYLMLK

[6] = target: T8, Murine B7-H4-Fc (Mouse B7H4 ECD, Fc_6His) (mouse, UniProt Q7TSP5 25-257); assay: HTRF binding, murine IgG1
T8 construct: extracellular domain; also called mouse B7-H4-Fc; FcHis6 tagged murine B7-H4
T8 sequence (Q7TSP5 whole entry, looked up): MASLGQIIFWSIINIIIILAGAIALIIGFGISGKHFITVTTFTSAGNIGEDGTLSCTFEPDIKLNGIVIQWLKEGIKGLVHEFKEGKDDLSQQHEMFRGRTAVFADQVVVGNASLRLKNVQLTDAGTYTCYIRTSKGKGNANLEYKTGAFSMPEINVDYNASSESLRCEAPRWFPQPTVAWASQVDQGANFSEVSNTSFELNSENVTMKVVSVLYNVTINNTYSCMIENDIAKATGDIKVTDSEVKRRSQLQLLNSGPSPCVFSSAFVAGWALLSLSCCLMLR

huHHLA2 [7] = target: T9, huHHLA2 (human, UniProt Q9UM44 23-344); assay: ELISA, absorbance 450 nm, antigen human HHLA2 GST
T9 construct: Sourced antigen; construct not described; also called Human HHLA2
T9 sequence (looked up): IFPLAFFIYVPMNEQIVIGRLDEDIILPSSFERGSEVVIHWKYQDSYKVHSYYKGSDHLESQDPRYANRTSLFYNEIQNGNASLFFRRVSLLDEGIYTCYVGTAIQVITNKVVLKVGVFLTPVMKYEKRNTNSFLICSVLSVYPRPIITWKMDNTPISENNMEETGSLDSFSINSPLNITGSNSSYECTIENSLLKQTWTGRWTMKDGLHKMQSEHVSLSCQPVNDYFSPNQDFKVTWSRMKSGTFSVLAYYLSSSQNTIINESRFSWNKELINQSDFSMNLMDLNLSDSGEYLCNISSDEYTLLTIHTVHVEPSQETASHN

huB7-H3 [8] = target: T10, huB7-H3 (human, UniProt Q5ZPR3 29-461, limits assumed); assay: ELISA, absorbance 450 nm, antigen human B7-H3 (ECD) Fc
T10 construct: Sourced antigen; construct not described; also called Human B7-H3
T10 sequence (looked up): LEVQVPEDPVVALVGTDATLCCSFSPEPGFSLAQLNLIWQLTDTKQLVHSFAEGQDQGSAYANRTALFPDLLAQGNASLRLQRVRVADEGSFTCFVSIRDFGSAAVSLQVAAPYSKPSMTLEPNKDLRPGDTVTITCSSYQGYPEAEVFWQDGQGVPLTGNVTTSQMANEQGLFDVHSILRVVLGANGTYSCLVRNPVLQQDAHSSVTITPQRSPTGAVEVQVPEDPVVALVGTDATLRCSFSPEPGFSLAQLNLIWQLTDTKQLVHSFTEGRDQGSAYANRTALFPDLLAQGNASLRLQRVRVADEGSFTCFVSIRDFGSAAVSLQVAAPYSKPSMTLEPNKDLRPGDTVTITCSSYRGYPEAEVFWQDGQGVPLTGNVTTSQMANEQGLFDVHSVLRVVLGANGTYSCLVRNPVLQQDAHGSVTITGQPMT

huBTN3A2 [9] = target: T11, huBTN3A2 (human, UniProt P78410 30-248, limits assumed); assay: ELISA, absorbance 450 nm, antigen human BTN3A2 GST
T11 construct: Sourced antigen; construct not described; also called Human BTN3A2

human B7-H4 on cells = target: T12, human B7-H4 on cells (human, UniProt Q7Z7D3 25-282); assay: cell-based or functional assay
T12 sequence: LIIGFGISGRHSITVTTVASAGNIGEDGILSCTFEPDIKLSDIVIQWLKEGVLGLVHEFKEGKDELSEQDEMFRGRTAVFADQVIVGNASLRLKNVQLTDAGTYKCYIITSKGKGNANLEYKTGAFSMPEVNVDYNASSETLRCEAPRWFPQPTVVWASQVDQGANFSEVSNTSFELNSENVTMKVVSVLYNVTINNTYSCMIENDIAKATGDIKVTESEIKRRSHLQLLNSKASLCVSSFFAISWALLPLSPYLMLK

huB7-H3 [10] = target: T10, huB7-H3; assay: ELISA
huBTN3A2 [11] = target: T11, huBTN3A2; assay: ELISA
huB7-H1 [12] = target: T3, huB7-H1; assay: ELISA
huB7-H2 [13] = target: T6, huB7-H2; assay: ELISA
huBTN1A1 [14] = target: T2, huBTN1A1; assay: ELISA
huHHLA2 [15] = target: T9, huHHLA2; assay: ELISA
[16] = target: T13, Human B7-H4 ECD-Flag-His10 (monomeric) (human, UniProt Q7Z7D3 25-259); assay: Octet; summary table, rounded from Table 9 (hIgG1-TM)
T13 construct: Minimally biotinylated for KinExA; also called hB7H4-ECD-Flag-His10; B7-H4-FLAG
T13 sequence: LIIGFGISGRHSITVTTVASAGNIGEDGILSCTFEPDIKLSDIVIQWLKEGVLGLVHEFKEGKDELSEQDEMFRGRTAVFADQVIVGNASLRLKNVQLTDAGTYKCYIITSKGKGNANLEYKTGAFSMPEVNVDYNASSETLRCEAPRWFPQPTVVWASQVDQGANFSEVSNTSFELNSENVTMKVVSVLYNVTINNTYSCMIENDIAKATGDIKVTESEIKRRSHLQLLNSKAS

[17] = target: T14, Human B7H4 ECD (SV), splice variant, 10His_FLAG (human); assay: Octet; summary table, repeats Table 9 (hIgG1-TM)
T14 construct: also called B7-H4-SV

[18] = target: T15, Murine B7-H4 ECD-Flag-His10 (monomeric) (mouse, UniProt Q7TSP5 25-257); assay: Octet; summary table, repeats Table 9 (hIgG1-TM)
T15 construct: extracellular domain; also called FlagHis10 murine B7-H4
T15 sequence (looked up): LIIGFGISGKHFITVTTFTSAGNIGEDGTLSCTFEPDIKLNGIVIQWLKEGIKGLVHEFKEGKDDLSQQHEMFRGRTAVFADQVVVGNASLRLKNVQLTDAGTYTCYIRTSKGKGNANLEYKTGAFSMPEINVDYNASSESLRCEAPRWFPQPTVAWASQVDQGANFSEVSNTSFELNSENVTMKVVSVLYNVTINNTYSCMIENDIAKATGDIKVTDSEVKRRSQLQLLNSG

[19] = target: T14, Human B7H4 ECD (SV), splice variant, …; assay: Octet BLI, hIgG1-TM on Protein G (n = 4-7)
[20] = target: T15, Murine B7-H4 ECD-Flag-His10 (monomeric); assay: Octet BLI, hIgG1-TM on Protein G (n = 4-7)
[21] = target: T13, Human B7-H4 ECD-Flag-His10 (monomeric); assay: Octet BLI, hIgG1-TM on Protein G (n = 4-7)

T3 sequence (Q9NZQ7 19-238 limits assumed): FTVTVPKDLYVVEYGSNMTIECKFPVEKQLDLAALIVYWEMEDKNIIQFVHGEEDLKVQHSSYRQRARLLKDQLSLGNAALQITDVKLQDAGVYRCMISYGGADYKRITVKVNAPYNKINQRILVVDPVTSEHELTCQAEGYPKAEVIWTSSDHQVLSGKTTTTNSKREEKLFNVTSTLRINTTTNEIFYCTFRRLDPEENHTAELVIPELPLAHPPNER
T11 sequence (P78410 30-248 limits assumed): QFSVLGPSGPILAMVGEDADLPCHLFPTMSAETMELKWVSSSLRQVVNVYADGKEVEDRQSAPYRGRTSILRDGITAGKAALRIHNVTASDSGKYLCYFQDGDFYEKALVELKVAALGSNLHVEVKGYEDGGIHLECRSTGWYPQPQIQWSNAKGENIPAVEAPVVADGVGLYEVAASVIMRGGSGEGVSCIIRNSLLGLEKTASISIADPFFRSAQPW

B1: ZY0EP0-C07 murine IgG1 (antibody, V domains shown)
VH: QVQLVESGGVLVKPGGSLRLSCAASGFTLSDYYMSWIRQAPGMGLEWVSYISSSGSTIYYTDSVKGRFTISRDSAKNSLYLQMNSLRAEDTAVYYCARDGVGFDYWGQGTLVTVSS
VL: EIVLTQSPGTLSLFPGERATLSCRASQSVSSSYLAWYQQKPGQSPRLLIYAASSRATGIPDRFSGSGSGTDFTLTISRLEPEDFAVYYCQQYGSSPLYTFGQGTKLEIK
notes: also called ZY0EPO-C07
EC50 [1]: 1.28 nM
Max [1]: 1250
binding result (huBTN1A1 [2]): no binding (tested: 10 µg/ml (antigen))
binding result (huB7-H1 [3]): no binding (tested: 10 µg/ml (antigen))
binding result (huBTNL3): no binding
binding result (huBTN2A1): no binding
binding result (huB7-H2 [4]): no binding (tested: 10 µg/ml (antigen))
EC50 [5]: 0.95 nM
Max [5]: 1740
EC50 [6]: 0.49 nM
Max [6]: 1910
binding result (huHHLA2 [7]): no binding (tested: about 10 µg/ml (antigen))
binding result (huB7-H3 [8]): no binding
binding result (huBTN3A2 [9]): no binding (tested: about 10 µg/ml (antigen))

B2: ZY0EO5-E07 human IgG1-TM (antibody, V domains shown)
VH: QVQLQESGPGLVKPSQTLSLTCTVSGGSISSGGYYWSWIRQHPGKGLEWIGNIYYSGSTYYNPSLKSRVTISVDTSKNQFSLKLSSVTAADTAVYYCAREKALASVIPSGYENYYVVDVWGQGTTVTVSS
VL: DIQLTQSPSFLSASVGGRVTITCWASQGIAGYLAWYQQKPGKAPKLLIYAASTLQSGVPSRFSGSGSGTEFTLTISSLQPEDFATYYCQHLNSYPLTFGGGTKVEIK
notes: also called ZY0E05-E07; E05-E07
ZAP % Viability, OVCAR4 (human B7-H4 on cells): 58%
ZAP % Viability, SKBR3 (human B7-H4 on cells): 79%
binding result (huB7-H3 [10]): no binding
binding result (huBTN3A2 [11]): no binding
binding result (huBTNL3): no binding
binding result (huB7-H1 [12]): no binding
binding result (huB7-H2 [13]): no binding
binding result (huBTN1A1 [14]): no binding
binding result (huBTN2A1): no binding
binding result (huHHLA2 [15]): no binding
Kd [16]: 20 nM
Kd [17]: 264 nM
Kd [18]: 30 nM
Kd [19]: 264 nM
koff [19]: 0.000499 s⁻¹
kon [19]: 1890 M⁻¹ s⁻¹
Kd [20]: 30 nM
koff [20]: 0.000361 s⁻¹
kon [20]: 12100 M⁻¹ s⁻¹
Kd [21]: 19.8 nM
koff [21]: 0.000338 s⁻¹
kon [21]: 17100 M⁻¹ s⁻¹

From US20240239894A1 (AstraZeneca / MedImmune, published 2024)
